Biological target: the molecule itself
Test: crystal structure; sitting drop vapor diffusion at 19 °C; space group P212121, two dimers per asymmetric unit; 4Mut at 6.0 mg/mL in 20 mM HEPES-NaOH pH 8.5, 0.5 mM CoCl2, 200 mM NaCl

B1: SsoPox V82L/C258L/I261F/W263A (4Mut) (enzyme, Saccharolobus solfataricus, UniProt Q97VT7 1-314, looked up)
chain: MRIPLVGKDSIESKDIGFTLIHEHLRVFSEAVRQQWPHLYNEDEEFRNAVNEVKRAMQFGVKTIVDPTVMGLGRDIRFMEKLVKATGINLVAGTGIYIYIDLPFYFLNRSIDEIADLFIHDIKEGIQGTLNKAGFVKIAADEPGITKDVEKVIRAAAIANKETKVPIITHSNAHNNTGLEQQRILTEEGVDPGKILIGHLGDTDNIDYIKKIADKGSFIGLDRYGLDLFLPVDKRNETTLRLIKDGYSDKIMISHDYLCTFDAGTAKPEYKPKLAPRWSITLIFEDTIPFLKRNGVNEEVIATIFKENPKKFFS
notes: SsoPox, phosphotriesterase-like lactonase from Saccharolobus solfataricus, with four substitutions; primers run from the start codon (NdeI site) to behind the stop codon (HindIII site); Two cobalt atoms per protein by ICP-MS; also called SsoPox 4Mut; SsoPox-4Mut; source: E. coli BL21(DE3), pT7-7-4Mut, purified (thermoprecipitation, Q-Sepharose, Superdex 75, MonoQ)
binding result: binds

Reference: paper PMC7084321, “Structural and Functional Characterization of New SsoPox Variant Points to the Dimer Interface as a Driver for the Increase in Promiscuous Paraoxonase Activity” (International Journal of Molecular Sciences, 2020)
